The target in one assay is T1, H37Rv中ESAT6抗原 (Mycobacterium tuberculosis H37Rv, UniProt P9WNK7 2-95).
T1 construct: also called H37Rv中的ESAT6抗原
In words: Western blotting. A general note: In western blotting, separated proteins are transferred to a membrane and probed.

Another assay has as its target 重组ESAT6蛋白 (Mycobacterium tuberculosis, UniProt P9WNK7 1-95). In words: Western blotting.

T1 sequence (P9WNK7 2-95 limits assumed): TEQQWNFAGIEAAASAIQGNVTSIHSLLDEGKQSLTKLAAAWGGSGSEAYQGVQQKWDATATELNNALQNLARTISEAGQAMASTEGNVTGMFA
Chain of 重组ESAT6蛋白 (P9WNK7 whole entry): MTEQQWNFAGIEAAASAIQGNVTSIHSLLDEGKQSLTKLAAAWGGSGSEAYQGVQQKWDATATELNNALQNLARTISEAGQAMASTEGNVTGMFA

B1: 单克隆抗体MAb 8G4 (抗ESAT6单克隆抗体, 杂交瘤细胞株8G4, CCTCC NO:C2019287) (antibody, V domains shown)
VH: QIQLVQSGPELKRPGETVKISCKASGYTFTNYGMNWVKQAPGKGLKWMGWINTYNGVPTYTDDFKGRFAFSLETSARTAYLQIKNLKNEDMATYFCAIGGNIPPAYWGQGTLVTVSA
VL: NIMMTQSPSSLAVSAREKVTMICKSSHSVLKSSNQKNYLAWYQQKPGQSPKLLIYWASTRNSGVPDRFTGSGSGTNFTLTITSVQTEDLAVYYCHQYLSSLTFGGGTKLELK
notes: also called 单克隆抗体8G4; ESAT6单克隆抗体8G4
As to B1, the binding result with H37Rv中ESAT6抗原 and with 重组ESAT6蛋白 was “binds” in each case.
